Experimental data from patent US20220195037A1 (AstraZeneca / MedImmune, published 2022).

Target: T1, Lectin-like oxidized low density lipoprotein receptor-1 (LOX1), expressed on cells (UniProt P78380 1-273, limits assumed)
T1 construct: whole, on cells; Also used as the target for the functional rows, where it is endogenous LOX1 on patient-derived pancreatic tumor cells, cancer cell lines and cardiomyocytes; also called LOX1-expressing cells; cells overexpressing LOX1
Experiment: Western blot of lysates of human aortic endothelial cells, membrane probed with LX5140110 at 1 µg/ml and anti-human-Fc-HRP
Description: Inhibition of LOX1 can reduce chemotherapy-induced cardiomyocyte damage. While the combination of chemotherapy and anti-CSC targeted therapies will likely be useful in the clinic, it is known that many chemotherapies have unintended harmful side effects in addition to anti-tumor activity. One such side effect is cardiac damage that can lead to cardiomyocyte death and heart failure. […] First, we examined the expression of LOX1 in response to doxorobucin treatment in human aortic endothelial cells (HAEC) and embryonic stem cell derived cardiomyocytes. Oxidized LDL (Ox-LDL) is a conventional ligand of LOX1 and was added as a control, since previous reports show an increase of LOX1 in response to Ox-LDL in rat cardiac muscle cells (Spallarossa et al., (2005)). Forty-thousand cells were plated in a 96-well plate and treated with media alone or media containing 5 μM doxorubicin for 24 hours. The cells were then scraped and lysed with 1× RIPA buffer containing protease inhibitors on ice for 1 h. Loading buffer was added to each sample followed by heating for 10 min at 90° C. Twelve microliters of sample was loaded per lane in a 4-12% bis-tris gradient gel. The gels were run for 40 min at 200V in MOPS buffer. The proteins were transferred onto a nitrocellulose membrane using iBlot. The membrane was blocked overnight with casein solution. […]

B1: LX5140110 (antibody, V domains shown)
VH: QVQLVQSGAEVKKPGASVKVSCKVSGYTLTELSMHWVRQAPGKGLEWMGGFDPEDFKYHTHQKFQGRVTMTEDTSTDTAYMELSSLRSEDTAVYYCALVWGTQGKGVRGWDYYYGMDVWGQGTTVTVSS
VL: QSVVTQPPSVSGAPGQRVTISCTGSSSNIGAGYDVHWYQQLPGTAPKLLIYGNSNRPSGVPDRFSGSKSGTSASLAITGLQAEDEADYYCQSYDSSLSGWVFGGGTKLTVL
notes: Monoclonal antibody; It was detected with an anti-human-Fc antibody, and the controls were non-specific IgG1; also called LOX1-specific monoclonal antibody; LOX1 monoclonal antibody
  binding result: binds
